In patent US20180155451A1 (published 2018) one finds Ho/Con_1a and He/Con_2aR data, which are given here for 26 molecules.

Sequences and labels used below:
B1: GpH7-B3 variant E269_04F/GpL16-k0 (antibody, human IgG1, kappa)
heavy: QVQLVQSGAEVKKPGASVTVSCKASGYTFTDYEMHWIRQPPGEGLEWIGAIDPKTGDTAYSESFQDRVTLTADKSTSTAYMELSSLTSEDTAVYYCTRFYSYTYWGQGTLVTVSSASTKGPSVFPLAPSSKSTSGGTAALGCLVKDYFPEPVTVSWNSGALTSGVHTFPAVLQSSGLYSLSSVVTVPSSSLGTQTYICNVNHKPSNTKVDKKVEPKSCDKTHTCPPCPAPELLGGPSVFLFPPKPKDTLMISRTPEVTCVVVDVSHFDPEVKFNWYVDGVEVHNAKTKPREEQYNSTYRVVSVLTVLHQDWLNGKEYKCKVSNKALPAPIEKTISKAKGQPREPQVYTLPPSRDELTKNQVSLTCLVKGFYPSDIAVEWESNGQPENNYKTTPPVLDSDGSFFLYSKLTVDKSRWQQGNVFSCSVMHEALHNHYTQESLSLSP
light: DIVMTQSPLSLPVTPGEPASISCQASESLVHSNRNTYLHWYLQKPGQSPQLLIYKVSNRFSGVPDRFSGSGSGTDFTLKISRVEAEDVGVYYCSQNTHVPPTFGQGTKVEIERTVAAPSVFIFPPSDEQLKSGTASVVCLLNNFYPREAKVQWKVDNALQSGNSQESVTEQDSKDSTYSLSSTLTLSKADYEKHKVYACEVTHQGLSSPVTKSFNRGEC
notes: homodimerized; also called Ho Ab E269_04F
B2: GpH7-B3 variant A327_09D/GpL16-k0 (antibody, human IgG1, kappa)
heavy: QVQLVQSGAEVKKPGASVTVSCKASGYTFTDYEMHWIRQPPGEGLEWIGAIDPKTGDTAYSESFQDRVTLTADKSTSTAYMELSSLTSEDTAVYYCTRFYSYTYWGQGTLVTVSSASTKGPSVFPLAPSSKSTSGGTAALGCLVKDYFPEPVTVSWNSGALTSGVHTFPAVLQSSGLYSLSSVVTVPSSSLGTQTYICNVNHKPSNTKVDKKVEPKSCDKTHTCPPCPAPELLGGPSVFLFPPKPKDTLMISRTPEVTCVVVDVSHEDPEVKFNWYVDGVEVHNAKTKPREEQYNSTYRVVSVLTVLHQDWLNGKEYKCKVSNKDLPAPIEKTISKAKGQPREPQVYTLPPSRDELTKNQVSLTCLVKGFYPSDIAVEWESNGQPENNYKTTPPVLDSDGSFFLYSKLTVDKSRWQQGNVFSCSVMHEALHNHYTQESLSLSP
light: B1 light
notes: homodimerized; also called Ho Ab A327_09D
B3: GpH7-B3 variant A330_11K/GpL16-k0 (antibody, human IgG1, kappa)
heavy: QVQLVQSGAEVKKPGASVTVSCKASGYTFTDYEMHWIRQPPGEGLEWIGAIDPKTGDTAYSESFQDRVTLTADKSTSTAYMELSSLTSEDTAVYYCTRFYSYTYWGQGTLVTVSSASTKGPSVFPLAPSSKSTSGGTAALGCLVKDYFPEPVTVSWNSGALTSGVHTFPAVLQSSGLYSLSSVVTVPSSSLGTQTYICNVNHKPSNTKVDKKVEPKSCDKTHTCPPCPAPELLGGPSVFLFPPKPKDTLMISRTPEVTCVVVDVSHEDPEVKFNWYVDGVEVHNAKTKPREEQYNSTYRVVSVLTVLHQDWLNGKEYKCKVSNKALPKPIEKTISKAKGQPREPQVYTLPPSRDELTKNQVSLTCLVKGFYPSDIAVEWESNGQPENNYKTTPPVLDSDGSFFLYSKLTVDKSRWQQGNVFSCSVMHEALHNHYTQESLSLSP
light: B1 light
notes: homodimerized; also called Ho Ab A330_11K
B4: GpH7-B3 variant A327_13S/GpL16-k0 (antibody, human IgG1, kappa)
heavy: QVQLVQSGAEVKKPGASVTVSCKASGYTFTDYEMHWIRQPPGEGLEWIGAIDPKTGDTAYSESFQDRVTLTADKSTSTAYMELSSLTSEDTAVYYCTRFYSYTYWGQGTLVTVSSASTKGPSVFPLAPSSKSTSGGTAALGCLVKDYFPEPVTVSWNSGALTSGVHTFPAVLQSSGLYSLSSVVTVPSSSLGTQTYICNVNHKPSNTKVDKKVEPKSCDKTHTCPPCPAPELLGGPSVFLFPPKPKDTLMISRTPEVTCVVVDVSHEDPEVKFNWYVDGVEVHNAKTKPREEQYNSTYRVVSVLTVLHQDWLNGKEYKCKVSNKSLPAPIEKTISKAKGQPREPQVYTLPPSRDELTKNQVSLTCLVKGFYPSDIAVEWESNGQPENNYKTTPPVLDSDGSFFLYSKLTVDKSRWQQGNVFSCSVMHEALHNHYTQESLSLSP
light: B1 light
notes: homodimerized; also called Ho Ab A327_13S
B5: GpH7-B3 variant A327_07I/GpL16-k0 (antibody, human IgG1, kappa)
heavy: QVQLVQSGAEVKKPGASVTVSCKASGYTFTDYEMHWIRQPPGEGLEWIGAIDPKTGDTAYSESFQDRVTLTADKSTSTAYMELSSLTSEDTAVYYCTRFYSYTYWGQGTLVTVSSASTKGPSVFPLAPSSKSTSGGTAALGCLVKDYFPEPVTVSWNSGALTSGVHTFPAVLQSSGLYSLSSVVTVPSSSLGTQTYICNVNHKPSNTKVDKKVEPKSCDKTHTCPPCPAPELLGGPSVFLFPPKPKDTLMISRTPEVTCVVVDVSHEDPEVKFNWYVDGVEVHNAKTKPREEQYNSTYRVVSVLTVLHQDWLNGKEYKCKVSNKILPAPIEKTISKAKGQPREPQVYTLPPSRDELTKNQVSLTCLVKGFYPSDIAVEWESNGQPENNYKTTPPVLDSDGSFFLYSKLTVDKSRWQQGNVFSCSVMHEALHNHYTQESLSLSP
light: B1 light
notes: homodimerized; also called Ho Ab A327_07I
B6: GpH7-B3 variant A330_09D/GpL16-k0 (antibody, human IgG1, kappa)
heavy: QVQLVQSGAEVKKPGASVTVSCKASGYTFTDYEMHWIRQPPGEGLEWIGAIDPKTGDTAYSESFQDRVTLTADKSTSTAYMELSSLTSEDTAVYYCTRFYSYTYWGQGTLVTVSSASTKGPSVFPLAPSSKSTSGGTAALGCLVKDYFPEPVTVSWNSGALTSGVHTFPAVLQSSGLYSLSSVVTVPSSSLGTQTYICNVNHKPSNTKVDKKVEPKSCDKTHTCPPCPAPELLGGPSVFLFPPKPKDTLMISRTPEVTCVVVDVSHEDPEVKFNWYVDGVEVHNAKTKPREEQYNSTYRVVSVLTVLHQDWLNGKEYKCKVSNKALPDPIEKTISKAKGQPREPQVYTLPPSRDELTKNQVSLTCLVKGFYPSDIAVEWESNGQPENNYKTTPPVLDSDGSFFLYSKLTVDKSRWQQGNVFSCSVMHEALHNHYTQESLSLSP
light: B1 light
notes: homodimerized; also called Ho Ab A330_09D
B7: GpH7-B3 variant A330_05P/GpL16-k0 (antibody, human IgG1, kappa)
heavy: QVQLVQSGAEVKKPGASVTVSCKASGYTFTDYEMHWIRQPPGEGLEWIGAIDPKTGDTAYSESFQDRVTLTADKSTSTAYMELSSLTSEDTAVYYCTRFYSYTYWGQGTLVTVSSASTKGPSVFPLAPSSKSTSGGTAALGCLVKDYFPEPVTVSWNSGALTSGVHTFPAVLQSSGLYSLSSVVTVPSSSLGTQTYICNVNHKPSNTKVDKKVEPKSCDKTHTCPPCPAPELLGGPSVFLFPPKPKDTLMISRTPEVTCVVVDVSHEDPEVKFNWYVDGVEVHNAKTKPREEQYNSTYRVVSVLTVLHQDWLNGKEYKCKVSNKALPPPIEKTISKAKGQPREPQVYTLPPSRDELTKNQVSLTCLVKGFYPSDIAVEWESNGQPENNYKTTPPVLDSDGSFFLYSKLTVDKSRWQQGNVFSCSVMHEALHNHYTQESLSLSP
light: B1 light
notes: homodimerized; also called Ho Ab A330_05P
B8: GpH7-B3 variant A330_08L/GpL16-k0 (antibody, human IgG1, kappa)
heavy: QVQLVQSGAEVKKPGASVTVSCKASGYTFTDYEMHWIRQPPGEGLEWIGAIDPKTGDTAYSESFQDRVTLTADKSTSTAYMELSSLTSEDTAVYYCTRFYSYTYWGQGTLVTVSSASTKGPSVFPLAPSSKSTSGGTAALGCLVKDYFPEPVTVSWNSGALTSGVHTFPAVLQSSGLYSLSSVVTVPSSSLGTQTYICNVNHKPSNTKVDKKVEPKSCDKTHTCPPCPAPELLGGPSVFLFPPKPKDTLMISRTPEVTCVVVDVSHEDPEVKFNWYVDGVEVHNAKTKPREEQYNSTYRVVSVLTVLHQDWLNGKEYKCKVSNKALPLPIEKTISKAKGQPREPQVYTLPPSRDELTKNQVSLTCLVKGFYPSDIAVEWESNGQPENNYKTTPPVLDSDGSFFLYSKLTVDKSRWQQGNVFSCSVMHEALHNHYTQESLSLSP
light: B1 light
notes: homodimerized; also called Ho Ab A330_08L; GpH7-B3-20-08L/GpL16-k0
B9: GpH7-B3 variant A327_03V/GpL16-k0 (antibody, human IgG1, kappa)
heavy: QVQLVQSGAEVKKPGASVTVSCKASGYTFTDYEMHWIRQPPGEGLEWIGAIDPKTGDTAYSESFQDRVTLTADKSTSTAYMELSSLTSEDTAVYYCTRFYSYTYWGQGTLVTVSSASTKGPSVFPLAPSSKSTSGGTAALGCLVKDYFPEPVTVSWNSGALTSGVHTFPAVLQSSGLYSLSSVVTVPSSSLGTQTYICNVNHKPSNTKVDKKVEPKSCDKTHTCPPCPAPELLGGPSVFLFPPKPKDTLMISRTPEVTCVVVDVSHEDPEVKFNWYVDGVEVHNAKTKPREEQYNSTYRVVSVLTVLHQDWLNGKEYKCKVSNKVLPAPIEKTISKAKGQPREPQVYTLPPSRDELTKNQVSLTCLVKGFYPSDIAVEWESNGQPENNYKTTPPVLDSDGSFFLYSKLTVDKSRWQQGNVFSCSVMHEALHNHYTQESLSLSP
light: B1 light
notes: homodimerized; also called Ho Ab A327_03V
B10: GpH7-B3 variant A327_06M/GpL16-k0 (antibody, human IgG1, kappa)
heavy: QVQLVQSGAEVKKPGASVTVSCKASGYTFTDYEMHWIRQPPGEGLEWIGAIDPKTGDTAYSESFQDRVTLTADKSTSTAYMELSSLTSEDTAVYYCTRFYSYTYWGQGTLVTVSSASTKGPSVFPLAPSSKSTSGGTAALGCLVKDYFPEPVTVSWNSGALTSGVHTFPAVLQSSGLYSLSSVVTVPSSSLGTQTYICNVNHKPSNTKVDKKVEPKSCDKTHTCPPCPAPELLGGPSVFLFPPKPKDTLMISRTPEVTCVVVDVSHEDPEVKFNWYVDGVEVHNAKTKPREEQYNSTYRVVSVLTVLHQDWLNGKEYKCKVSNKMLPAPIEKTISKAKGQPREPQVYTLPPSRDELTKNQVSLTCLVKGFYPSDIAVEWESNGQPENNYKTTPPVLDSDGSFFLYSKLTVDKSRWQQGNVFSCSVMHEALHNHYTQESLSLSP
light: B1 light
notes: homodimerized; also called Ho Ab A327_06M
B11: GpH7-B3 variant A327_10E/GpL16-k0 (antibody, human IgG1, kappa)
heavy: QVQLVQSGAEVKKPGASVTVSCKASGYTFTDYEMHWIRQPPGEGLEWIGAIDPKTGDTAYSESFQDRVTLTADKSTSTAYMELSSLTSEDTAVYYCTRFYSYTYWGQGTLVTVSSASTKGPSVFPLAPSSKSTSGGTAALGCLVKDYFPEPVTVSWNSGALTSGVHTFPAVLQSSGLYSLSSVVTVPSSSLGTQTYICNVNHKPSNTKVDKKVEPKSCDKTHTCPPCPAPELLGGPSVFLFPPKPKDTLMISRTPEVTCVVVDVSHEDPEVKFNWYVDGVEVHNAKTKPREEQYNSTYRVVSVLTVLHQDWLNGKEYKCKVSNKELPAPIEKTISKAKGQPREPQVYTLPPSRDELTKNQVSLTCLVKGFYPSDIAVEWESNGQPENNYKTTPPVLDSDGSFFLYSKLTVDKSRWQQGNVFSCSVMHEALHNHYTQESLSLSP
light: B1 light
notes: homodimerized; also called Ho Ab A327_10E
B12: GpH7-A5/GpH7-B3 variant S324_06M/GpL16-k0 (antibody, human IgG1, kappa)
heavy 1: not shown
heavy 2: not shown
light: B1 light
notes: heterodimerized; mutation in one H chain; also called He Ab
B13: GpH7-A5/GpH7-B3 variant S267_19Q/GpL16-k0 (antibody, human IgG1, kappa)
heavy 1: not shown
heavy 2: not shown
light: B1 light
notes: as for B12
B14: GpH7-A5/GpH7-B3 variant S267_09D/GpL16-k0 (antibody, human IgG1, kappa)
heavy 1: not shown
heavy 2: not shown
light: B1 light
notes: as for B12
B15: GpH7-A5/GpH7-B3 variant K334_19Q/GpL16-k0 (antibody, human IgG1, kappa)
heavy 1: not shown
heavy 2: not shown
light: B1 light
notes: as for B12
B16: GpH7-A5/GpH7-B3 variant S337_16H/GpL16-k0 (antibody, human IgG1, kappa)
heavy 1: not shown
heavy 2: not shown
light: B1 light
notes: as for B12
B17: GpH7-A5/GpH7-B3 variant S337_03V/GpL16-k0 (antibody, human IgG1, kappa)
heavy 1: not shown
heavy 2: not shown
light: B1 light
notes: as for B12
B18: GpH7-A5/GpH7-B3 variant S239_08L/GpL16-k0 (antibody, human IgG1, kappa)
heavy 1: not shown
heavy 2: not shown
light: B1 light
notes: as for B12
B19: GpH7-A5/GpH7-B3 variant T335_05P/GpL16-k0 (antibody, human IgG1, kappa)
heavy 1: not shown
heavy 2: not shown
light: B1 light
notes: as for B12
B20: GpH7-A5/GpH7-B3 variant P238_04F/GpL16-k0 (antibody, human IgG1, kappa)
heavy 1: not shown
heavy 2: not shown
light: B1 light
notes: as for B12
B21: GpH7-A5/GpH7-B3 variant P271_08L/GpL16-k0 (antibody, human IgG1, kappa)
heavy 1: not shown
heavy 2: not shown
light: B1 light
notes: as for B12
B22: GpH7-A5/GpH7-B3 variant T335_13S/GpL16-k0 (antibody, human IgG1, kappa)
heavy 1: not shown
heavy 2: not shown
light: B1 light
notes: as for B12
B23: GpH7-A5/GpH7-B3 variant L328_14T/GpL16-k0 (antibody, human IgG1, kappa)
heavy 1: not shown
heavy 2: not shown
light: B1 light
notes: as for B12
B24: GpH7-A5/GpH7-B3 variant P238_03V/GpL16-k0 (antibody, human IgG1, kappa)
heavy 1: not shown
heavy 2: not shown
light: B1 light
notes: as for B12
B25: GpH7-A5/GpH7-B3 variant K334_10E/GpL16-k0 (antibody, human IgG1, kappa)
heavy 1: not shown
heavy 2: not shown
light: B1 light
notes: as for B12
B26: GpH7-A5/GpH7-B3 variant K334_02A/GpL16-k0 (antibody, human IgG1, kappa)
heavy 1: not shown
heavy 2: not shown
light: B1 light
notes: as for B12

For one experiment, the target named is T1, FcγRIa (human, UniProt P12314 16-292).
T1 construct: extracellular domain; also called FcgRI; CD64
T1 sequence (P12314 16-292): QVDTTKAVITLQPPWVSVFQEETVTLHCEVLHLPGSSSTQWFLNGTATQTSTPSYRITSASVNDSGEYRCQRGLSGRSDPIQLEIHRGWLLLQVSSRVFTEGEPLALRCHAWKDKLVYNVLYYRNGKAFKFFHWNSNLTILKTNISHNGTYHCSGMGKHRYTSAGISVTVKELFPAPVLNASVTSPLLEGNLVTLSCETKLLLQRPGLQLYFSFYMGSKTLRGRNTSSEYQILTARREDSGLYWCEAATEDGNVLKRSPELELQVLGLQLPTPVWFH
Description: SPR; vs GpH7-B3/GpL16-k0=100.
With B1, the Ho/Con_1a is 102 % of control.
The same measure, in the same setting: under B2 stands 102 % of control; under B3, 94.1 % of control; under B4, 86.1 % of control.
Still for that read-out and setting: under B5 stands 95.5 % of control; under B6, 108 % of control.
Still for that read-out and setting: under B7 stands 84.4 % of control; under B8, 106 % of control; under B9, 94.4 % of control.
For the molecule B10, the Ho/Con_1a was 93.1 % of control.
Take B11: the Ho/Con_1a is 98.8 % of control.

In the next experiment the target is T2, FcγRIIa R (extracellular domain with a His tag at the C terminus) (human, UniProt P12318 34-217).
T2 construct: extracellular domain; expressed in FreeStyle293 cells; also called FcgRIIa R; FcγRIIa type R; not shown: His tag at the C terminus
T2 sequence (looked up): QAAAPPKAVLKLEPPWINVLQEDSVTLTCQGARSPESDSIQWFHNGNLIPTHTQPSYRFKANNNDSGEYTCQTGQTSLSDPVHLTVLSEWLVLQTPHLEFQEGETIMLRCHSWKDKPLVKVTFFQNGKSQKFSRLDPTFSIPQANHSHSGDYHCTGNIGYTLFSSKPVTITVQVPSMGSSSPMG
Kind of experiment: SPR Biacore, relative binding. On the technique in general: Surface plasmon resonance follows binding to a sensor surface in real time, without labels.
Consider B12, for which the He/Con_2aR is 123 % of GpH7-A5/GpH7-B3/GpL16-k0 (=100).
B13: the He/Con_2aR is 135 % of GpH7-A5/GpH7-B3/GpL16-k0 (=100).
Take B14: the He/Con_2aR is 173 % of GpH7-A5/GpH7-B3/GpL16-k0 (=100).
Turning to B15, the He/Con_2aR is 109 % of GpH7-A5/GpH7-B3/GpL16-k0 (=100).
Still for that read-out and setting: the figure for B16 is 109 % of GpH7-A5/GpH7-B3/GpL16-k0 (=100); for B17 it is 106 % of GpH7-A5/GpH7-B3/GpL16-k0 (=100).
Consider B18, for which the He/Con_2aR was 122 % of GpH7-A5/GpH7-B3/GpL16-k0 (=100).
The same measure, in the same setting: the figure for B19 is 104 % of GpH7-A5/GpH7-B3/GpL16-k0 (=100).
Same read-out and setting: the figure for B20 is 174 % of GpH7-A5/GpH7-B3/GpL16-k0 (=100); for B21 it is 104 % of GpH7-A5/GpH7-B3/GpL16-k0 (=100); for B22 it is 110 % of GpH7-A5/GpH7-B3/GpL16-k0 (=100).
Regarding B23, the He/Con_2aR was 119 % of GpH7-A5/GpH7-B3/GpL16-k0 (=100).
The same measure, in the same setting: under B24 stands 120 % of GpH7-A5/GpH7-B3/GpL16-k0 (=100).
In the case of B25, the He/Con_2aR is 106 % of GpH7-A5/GpH7-B3/GpL16-k0 (=100).
For the molecule B26, the He/Con_2aR was 105 % of GpH7-A5/GpH7-B3/GpL16-k0 (=100).
